Target: T1, K+/Cl- co-transporter KCC2 (mouse (endogenous in mouse forebrain)), Q91V14
T1 chain: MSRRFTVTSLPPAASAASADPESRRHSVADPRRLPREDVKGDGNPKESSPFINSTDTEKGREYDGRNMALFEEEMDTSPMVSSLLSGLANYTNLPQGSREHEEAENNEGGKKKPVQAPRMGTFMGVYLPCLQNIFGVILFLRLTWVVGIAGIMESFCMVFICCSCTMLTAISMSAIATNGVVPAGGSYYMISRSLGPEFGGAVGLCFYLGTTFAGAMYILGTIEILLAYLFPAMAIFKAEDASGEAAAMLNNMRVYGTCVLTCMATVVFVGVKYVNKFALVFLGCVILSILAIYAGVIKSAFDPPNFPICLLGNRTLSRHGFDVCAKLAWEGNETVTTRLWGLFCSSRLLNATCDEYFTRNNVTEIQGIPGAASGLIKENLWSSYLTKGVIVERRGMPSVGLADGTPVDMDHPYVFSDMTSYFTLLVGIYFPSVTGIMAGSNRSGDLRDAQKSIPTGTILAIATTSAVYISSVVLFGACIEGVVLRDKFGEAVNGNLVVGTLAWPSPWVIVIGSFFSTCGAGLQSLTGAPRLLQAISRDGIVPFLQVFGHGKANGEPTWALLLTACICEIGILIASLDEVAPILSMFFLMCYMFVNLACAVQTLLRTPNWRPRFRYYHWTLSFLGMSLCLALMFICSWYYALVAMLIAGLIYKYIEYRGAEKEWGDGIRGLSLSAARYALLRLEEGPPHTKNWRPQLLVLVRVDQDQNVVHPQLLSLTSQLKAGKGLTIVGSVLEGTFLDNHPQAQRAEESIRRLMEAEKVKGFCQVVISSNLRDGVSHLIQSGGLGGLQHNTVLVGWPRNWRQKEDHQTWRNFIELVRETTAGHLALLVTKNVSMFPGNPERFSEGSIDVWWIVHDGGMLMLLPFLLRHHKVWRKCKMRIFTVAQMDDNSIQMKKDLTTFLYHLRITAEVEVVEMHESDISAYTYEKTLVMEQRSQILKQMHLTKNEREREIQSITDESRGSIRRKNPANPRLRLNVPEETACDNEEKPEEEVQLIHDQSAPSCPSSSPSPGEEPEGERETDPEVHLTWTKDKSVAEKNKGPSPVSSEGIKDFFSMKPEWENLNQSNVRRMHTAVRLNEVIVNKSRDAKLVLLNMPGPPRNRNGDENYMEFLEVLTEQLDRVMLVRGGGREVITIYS
Test: native gel or EMSA
Conditions: remark: other sources report otherwise

stoichiometry N: 2
B1: K+/Cl- co-transporter KCC2, Q91V14 1-1138 (natural protein)
chain: MSRRFTVTSLPPAASAASADPESRRHSVADPRRLPREDVKGDGNPKESSPFINSTDTEKGREYDGRNMALFEEEMDTSPMVSSLLSGLANYTNLPQGSREHEEAENNEGGKKKPVQAPRMGTFMGVYLPCLQNIFGVILFLRLTWVVGIAGIMESFCMVFICCSCTMLTAISMSAIATNGVVPAGGSYYMISRSLGPEFGGAVGLCFYLGTTFAGAMYILGTIEILLAYLFPAMAIFKAEDASGEAAAMLNNMRVYGTCVLTCMATVVFVGVKYVNKFALVFLGCVILSILAIYAGVIKSAFDPPNFPICLLGNRTLSRHGFDVCAKLAWEGNETVTTRLWGLFCSSRLLNATCDEYFTRNNVTEIQGIPGAASGLIKENLWSSYLTKGVIVERRGMPSVGLADGTPVDMDHPYVFSDMTSYFTLLVGIYFPSVTGIMAGSNRSGDLRDAQKSIPTGTILAIATTSAVYISSVVLFGACIEGVVLRDKFGEAVNGNLVVGTLAWPSPWVIVIGSFFSTCGAGLQSLTGAPRLLQAISRDGIVPFLQVFGHGKANGEPTWALLLTACICEIGILIASLDEVAPILSMFFLMCYMFVNLACAVQTLLRTPNWRPRFRYYHWTLSFLGMSLCLALMFICSWYYALVAMLIAGLIYKYIEYRGAEKEWGDGIRGLSLSAARYALLRLEEGPPHTKNWRPQLLVLVRVDQDQNVVHPQLLSLTSQLKAGKGLTIVGSVLEGTFLDNHPQAQRAEESIRRLMEAEKVKGFCQVVISSNLRDGVSHLIQSGGLGGLQHNTVLVGWPRNWRQKEDHQTWRNFIELVRETTAGHLALLVTKNVSMFPGNPERFSEGSIDVWWIVHDGGMLMLLPFLLRHHKVWRKCKMRIFTVAQMDDNSIQMKKDLTTFLYHLRITAEVEVVEMHESDISAYTYEKTLVMEQRSQILKQMHLTKNEREREIQSITDESRGSIRRKNPANPRLRLNVPEETACDNEEKPEEEVQLIHDQSAPSCPSSSPSPGEEPEGERETDPEVHLTWTKDKSVAEKNKGPSPVSSEGIKDFFSMKPEWENLNQSNVRRMHTAVRLNEVIVNKSRDAKLVLLNMPGPPRNRNGDENYMEFLEVLTEQLDRVMLVRGGGREVITIYS

— doi:10.1101/2020.03.02.973859
